Results on four molecules are retold here after patent US20210292423A1 (published 2021).

Where two headings read alike, the source gives them in different places.

The target in experiment [1] is T1, human CD123 (IL3RA) on cells (human, UniProt P26951 19-378). In words: cell-based or functional assay.
The target of experiment [2] is T1, human CD123 (IL3RA) on cells. In words: cell-based or functional assay. The source holds these as a separate data set.
The target of experiment [3] is T2, human CD3ε/δ-Fc fusion protein (soluble recombinant CD3ε/δ complex) (human, UniProt P04234 22-105).
T2 construct: also called huCD3ε/δ; huCD3; not shown: hinge, CH2, CH3 of human IgG with tag
Briefly: SPR Biacore. For orientation: In SPR one partner is held on a chip, and binding of the other changes the refractive index at the surface.

Experiment [4] has as its target T3, human CD123 Strep-II tagged Fc-fusion protein (human).
T3 construct: also called human CD123-Fc; recombinant CD123
In words: SPR Biacore.

Experiment [5] deals with T2, human CD3ε/δ-Fc fusion protein (soluble …). In words: SPR Biacore. This is another data set of the same source.
For experiment [6], the target named is T3, human CD123 Strep-II tagged Fc-fusion …. In words: SPR Biacore. The source holds these as a separate data set.
Experiment [7] deals with T4, human CD3 (TCR complex) on primary human T cells or Jurkat cells (human, UniProt P07766 23-207). In words: cell-based or functional assay.
Experiment [8] deals with T1, human CD123 (IL3RA) on cells. In words: cell-based or functional assay. This is another data set of the same source.
The target of experiment [9] is T4, human CD3 (TCR complex) on primary …. Briefly: cell-based or functional assay. The source holds these as a separate data set.

T4 sequence (P07766 23-207, one chain of several): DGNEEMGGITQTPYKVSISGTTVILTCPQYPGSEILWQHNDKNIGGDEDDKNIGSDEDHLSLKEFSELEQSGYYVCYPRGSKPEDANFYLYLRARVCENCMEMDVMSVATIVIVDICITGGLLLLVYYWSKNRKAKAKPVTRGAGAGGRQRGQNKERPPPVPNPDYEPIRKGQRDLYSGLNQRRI
T1 sequence (P26951 19-378): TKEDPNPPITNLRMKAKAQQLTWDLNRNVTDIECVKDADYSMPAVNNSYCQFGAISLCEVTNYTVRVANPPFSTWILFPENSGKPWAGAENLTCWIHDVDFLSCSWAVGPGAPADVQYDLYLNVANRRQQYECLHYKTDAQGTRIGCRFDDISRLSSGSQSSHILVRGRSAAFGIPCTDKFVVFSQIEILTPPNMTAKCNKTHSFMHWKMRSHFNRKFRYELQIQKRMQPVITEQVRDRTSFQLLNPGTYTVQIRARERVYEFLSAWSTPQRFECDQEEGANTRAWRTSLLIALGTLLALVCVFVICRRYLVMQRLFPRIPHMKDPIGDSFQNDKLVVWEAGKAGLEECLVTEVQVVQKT
T3 sequence (chain, as listed by the source limits assumed): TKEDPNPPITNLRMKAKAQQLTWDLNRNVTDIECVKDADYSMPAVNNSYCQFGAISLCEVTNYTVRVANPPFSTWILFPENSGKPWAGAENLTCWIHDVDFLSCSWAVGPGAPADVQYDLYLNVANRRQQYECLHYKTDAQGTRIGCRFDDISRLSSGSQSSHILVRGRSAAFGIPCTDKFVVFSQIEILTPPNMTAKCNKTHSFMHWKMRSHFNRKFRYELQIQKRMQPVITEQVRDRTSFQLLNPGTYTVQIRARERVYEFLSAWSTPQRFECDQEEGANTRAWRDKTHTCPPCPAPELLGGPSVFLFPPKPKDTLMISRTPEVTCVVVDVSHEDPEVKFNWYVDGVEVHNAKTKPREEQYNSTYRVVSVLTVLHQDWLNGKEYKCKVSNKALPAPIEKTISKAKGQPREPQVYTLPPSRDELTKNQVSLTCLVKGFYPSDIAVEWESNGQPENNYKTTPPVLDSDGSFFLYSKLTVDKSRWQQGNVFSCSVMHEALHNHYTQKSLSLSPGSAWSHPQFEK
T2 sequence (chain, as listed by the source mutant, chain 1 of 2): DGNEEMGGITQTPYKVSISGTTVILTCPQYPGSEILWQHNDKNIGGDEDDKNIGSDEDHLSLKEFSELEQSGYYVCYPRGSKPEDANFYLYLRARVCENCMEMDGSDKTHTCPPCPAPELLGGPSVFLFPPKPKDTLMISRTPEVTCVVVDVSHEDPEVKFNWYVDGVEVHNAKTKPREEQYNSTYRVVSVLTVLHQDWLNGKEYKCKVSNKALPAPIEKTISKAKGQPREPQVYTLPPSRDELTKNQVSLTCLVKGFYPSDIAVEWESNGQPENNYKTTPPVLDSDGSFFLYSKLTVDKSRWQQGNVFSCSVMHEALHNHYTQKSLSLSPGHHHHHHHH
T2 sequence (P04234 22-105, stated change not applied, chain 2 of 2): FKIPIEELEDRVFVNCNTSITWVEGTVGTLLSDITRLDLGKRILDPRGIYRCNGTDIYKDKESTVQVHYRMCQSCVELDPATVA

B1: CODV-Fab hz4B4x3E3 antibody-like binding protein (bispecific antibody)
light: QFVLTQPNSVSTNLGSTVKLSCKRNTGNIGSNYVNWYQQHEGRSPTTMIYRDDKRPDGVPDRFSGSIDRSSNSALLTINNVQTEDEADYFCQSYSSGINIIFGGGTKLTVLGQPKAAPDVVMTQTPVSLSVSVGGRVSISCRSSQSLVHDNGNTYLSWSLQKPGKSPKVLIYKVSNRFSGVSSRFTGSGSGTDFTLKISSVQPDDLGVYYCGQGTQYPFTFGSGTKLEIKTKGPSRTVAAPSVFIFPPSDEQLKSGTASVVCLLNNFYPREAKVQWKVDNALQSGNSQESVTEQDSKDSTYSLSSTLTLSKADYEKHKVYACEVTHQGLSSPVTKSFNRGEC
heavy: QVQLVETGGGLVKPGQSLKLTCATSGFTFSNAWMHWVRQSPEKGLEWVAQIKARSNNYATYYAESVKGRFTISRDDSKSTIYLQMNSLTPEDTAIYYCRGTYYASKPFDYWGQGVMVTVSSSQVQLQESGPGLVQPSQTLSLTCTVSGFSLTTYDVHWVRQPPGKGLEWMGRIQNGGITDYNSALKSRLIISRDTSKSQVFLKMNSVQTEDTAMYFCAKTGSYFYAFDHWGQGTLVTVSSRTASTKGPSVFPLAPSSKSTSGGTAALGCLVKDYFPEPVTVSWNSGALTSGVHTFPAVLQSSGLYSLSSVVTVPSSSLGTQTYICNVNHKPSNTKVDKKVEPKSCDKTHTHHHHHH
notes: also called hz4B4 × 3E3 CODV-Fab
In general, Kd refers to the concentration at which binding is half-saturated. With B1, the “Cytotoxicity (THP-1) geomean EC50” value in experiment [1] was found to be 2 ng/mL. The “Cytotoxicity (THP-1) geomean EC50 [pM]” value in experiment [1] was determined as 26.5 pM. For the same molecule, the “Cytotoxic assay (THP cells) EC50 [pM]” value in experiment [2] is 26.5 pM. In addition, the Kd is 7 nM in [3] and 4.8 nM in experiment [4].

B2: CODV-Fab-TL1 hz20G6xhz7G3 antibody-like binding protein (bispecific antibody, human IgG1, kappa, L234A L235A)
light: DIVMTQSPDSLAVSLGERATINCESSQSLLNSGNQKNYLTWYQQKPGQPPKPLIYWASTRESGVPDRFSGSGSGTDFTLTISSLQAEDVAVYYCQNDYSYPYTFGQGTKLEIKGGSGSSGSGGDIVMTQTPLSLSVTPGQPASISCKSSQSLVHNNANTYLSWYLQKPGQSPQSLIYKVSNRFSGVPDRFSGSGSGTDFTLKISRVEAEDVGVYYCGQGTQYPFTFGSGTKVEIKGGSGSSGSGGRTVAAPSVFIFPPSDEQLKSGTASVVCLLNNFYPREAKVQWKVDNALQSGNSQESVTEQDSKDSTYSLSSTLTLSKADYEKHKVYACEVTHQGLSSPVTKSFNRGECDKTHTCPPCPAPEAAGGPSVFLFPPKPKDTLMISRTPEVTCVVVDVSHEDPEVKFNWYVDGVEVHNAKTKPREEQYNSTYRVVSVLTVLHQDWLNGKEYKCKVSNKALPAPIEKTISKAKGQPREPQVYTLPPSRDELTKNQVSLTCLVKGFYPSDIAVEWESNGQPENNYKTTPPVLDSDGSFFLYSKLTVDKSRWQQGNVFSCSVMHEALHNRFTQKSLSLSPG
heavy: not shown
notes: one chain of formula IV and one of formula III, IgG1 backbone; also called hz20G6xhz7G3 CODV-Fab-TL1
Consider B2, for which, in [5], the Kd amounted to 11 nM. The molecule further displayed a Kd in [6] of 0.2 nM. Besides, in [7], the “Jurkat-NFAT-Luc reporter, no target cells, activation at Cmax in relation to max. activation in assay with target cells (%)” value (“Jurkat-NFAT-Luc reporter, no target cells … (%)” for short) stood at 0.4% and the “Jurkat-NFAT-Luc reporter, with THP1 cells, EC50 (pM)” value (“Jurkat-NFAT-Luc reporter … (pM)” below) worked out at 444 pM. For the same molecule, in experiment [8], the “Cytotoxic assay (THP cells) EC50 [pM]” value amounted to 1 pM. In experiment [9], the “T cell activation with THP-1 target cells, CD4+ T cells (% CD69+ cells) EC50 (pM)” value stood at 3.2 pM and the “T cell activation with THP-1 target cells, CD8+ T cells (% CD69+ cells) EC50 (pM)” value amounted to 9.9 pM.

B3: CODV-Fab hz20G6xhz7G3 antibody-like binding protein (bispecific antibody)
light: DIVMTQSPDSLAVSLGERATINCESSQSLLNSGNQKNYLTWYQQKPGQPPKPLIYWASTRESGVPDRFSGSGSGTDFTLTISSLQAEDVAVYYCQNDYSYPYTFGQGTKLEIKGGSGSSGSGGDIVMTQTPLSLSVTPGQPASISCKSSQSLVHNNANTYLSWYLQKPGQSPQSLIYKVSNRFSGVPDRFSGSGSGTDFTLKISRVEAEDVGVYYCGQGTQYPFTFGSGTKVEIKGGSGSSGSGGRTVAAPSVFIFPPSDEQLKSGTASVVCLLNNFYPREAKVQWKVDNALQSGNSQESVTEQDSKDSTYSLSSTLTLSKADYEKHKVYACEVTHQGLSSPVTKSFNRGEC
heavy: QVQLVESGGGVVQPGRSLRLSCAASGFTFTKAWMHWVRQAPGKQLEWVAQIKDKSNSYATYYADSVKGRFTISRDDSKNTLYLQMNSLRAEDTAVYYCRGVYYALSPFDYWGQGTLVTVSSEVQLVQSGAEVKKPGESLKISCKGSGYSFTDYYMKWARQMPGKGLEWMGDIIPSSGATFYNQKFKGQVTISADKSISTTYLQWSSLKASDTAMYYCARSHLLRASWFAYWGQGTMVTVSSASTKGPSVFPLAPSSKSTSGGTAALGCLVKDYFPEPVTVSWNSGALTSGVHTFPAVLQSSGLYSLSSVVTVPSSSLGTQTYICNVNHKPSNTKVDKKVEPKSCDKTHTHHHHHH
notes: also called hz20G6xhz7G3 CODV-Fab
B3: in experiment [5], the Kd was 9 nM. In experiment [6], the Kd stood at 0.2 nM. In experiment [7], the “Jurkat-NFAT-Luc reporter, no target cells … (%)” value turned out to be 0.2% and the “Jurkat-NFAT-Luc reporter … (pM)” value amounted to 561 pM. Moreover, in experiment [8], the “Cytotoxic assay (THP cells) EC50 [pM]” value amounted to 2.1 pM. Besides, in [9], the “T cell activation with THP-1 target cells, CD4+ T cells (% CD69+ cells) EC50 (pM)” value amounted to 1.4 pM and the “T cell activation with THP-1 target cells, CD8+ T cells (% CD69+ cells) EC50 (pM)” value stood at 3.1 pM.

B4: single chain CD123 × CD3 bi-specific diabody in DART format MGD006 (bispecific antibody)
chain 1: QAVVTQEPSLTVSPGGTVTLTCRSSTGAVTTSNYANWVQQKPGQAPRGLIGGTNKRAPWTPARFSGSLLGGKAALTITGAQAEDEADYYCALWYSNLWVFGGGTKLTVLGGGGSGGGGEVQLVQSGAELKKPGASVKVSCKASGYTFTDYYMKWVRQAPGQGLEWIGDIIPSNGATFYNQKFKGRVTITVDKSTSTAYMELSSLRSEDTAVYYCARSHLLRASWFAYWGQGTLVTVSSGGCGGGEVAALEKEVAALEKEVAALEKEVAALEK
chain 2: DFVMTQSPDSLAVSLGERVTMSCKSSQSLLNSGNQKNYLTWYQQKPGQPPKLLIYWASTRESGVPDRFSGSGSGTDFTLTISSLQAEDVAVYYCQNDYSYPYTFGQGTKLEIKGGGSGGGGEVQLVESGGGLVQPGGSLRLSCAASGFTFSTYAMNWVRQAPGKGLEWVGRIRSKYNNYATYYADSVKDRFTISRDDSKNSLYLQMNSLKTEDTAVYYCVRHGNFGNSYVSWFAYWGQGTLVTVSSGGCGGGKVAALKEKVAALKEKVAALKEKVAALKE
notes: two chains covalently bonded by a disulfide bond; also called Single chain antibody DART format MGD006
With B4, in experiment [5], the Kd was 9 nM. The molecule further yielded a Kd in experiment [6] of 0.2 nM. In experiment [7], the “Jurkat-NFAT-Luc reporter, no target cells … (%)” value amounted to 25.1% and the “Jurkat-NFAT-Luc reporter … (pM)” value amounted to 370 pM. The “Cytotoxic assay (THP cells) EC50 [pM]” value in [8] amounted to 0.3 pM. In experiment [9], the “T cell activation with THP-1 target cells, CD4+ T cells (% CD69+ cells) EC50 (pM)” value was found to be 1 pM and the “T cell activation with THP-1 target cells, CD8+ T cells (% CD69+ cells) EC50 (pM)” value was found to be 3.5 pM.
